Experimental data as given in patent US20230212235A1.

Columns and labels:
[1] = biological target: GFP [GFP: P42212]; assay: SPR, GFP immobilised, nanobody injected; equilibrium Kd
[2] = biological target: GFP [GFP: P42212]; assay: SPR, GFP immobilised, nanobody injected; kinetic Kd
[3] = biological target: GFP [GFP: P42212]; assay: SPR, GFP immobilised; order of magnitude told of all four nanobodies

GBN^WT (wild-type GFP-binding nanobody) (VHH)
Kd [1]: 233 nM | Kd [2]: 18.9 nM | koff [3]: 0.0001 s⁻¹ | kon [3]: 10000 M⁻¹ s⁻¹
